Reference: publication PMC5253651, “Human farnesyl pyrophosphate synthase is allosterically inhibited by its own product” (Nature Communications, 2017)

Substrate: C=C(C)CCO[P@@](=O)(O)OP(=O)(O)O
Assay: purified protein, by the assay type
Details: other: saturating excess of GPP (∼500-fold over enzyme, 10-fold over IPP), steady-state equation accounting for product inhibition, Kp 6 μM, 30 °C, pH 7.5

B1: human FPPS (Homo sapiens) (protein)
chain: MNGDQNSDVYAQEKQDFVQHFSQIVRVLTEDEMGHPEIGDAIARLKEVLEYNAIGGKYNRGLTVVVAFRELVEPRKQDADSLQRAWTVGWCVELLQAFFLVADDIMDSSLTRRGQICWYQKPGVGLDAINDANLLEACIYRLLKLYCREQPYYLNLIELFLQSSYQTEIGQTLDLLTAPQGNVDLVRFTEKRYKSIVKYKTAFYSFYLPIAAAMYMAGIDGEKEHANAKKILLEMGEFFQIQDDYLDLFGDPSVTGKIGTDIQDNKCSWLVVQCLQRATPEQYQILKENYGQKEAEKVARVKALYEELDLPAVFLQYEEDSYSHIMALIEQYAAPLPPAVFLGLARKIYKRRK
Protein B1 has a Km of 1.1 µM.
